Laboratory results: publication PMC3790952 (Chembiochem, 2013)

Experiments:
purified protein = substrate: CC(C)=CCC/C(C)=C/CC/C(C)=C/CC/C(C)=C/COP(=O)(O)OP(=O)(O)O; test: purified protein; format: biochemical, Streptomyces sp.; conditions: 10 mM MgCl2, 30 °C, GGDP 10-200 μM
SEC = biological target: the molecule itself; test: SEC

B1: DtcycA (enzyme, Streptomyces sp. SANK 60404, UniProt M1V9Q0 1-371, looked up)
chain: MTDPAVTPLAFSIPQLYCPFPTAIHPEVDTLTRAGMDFMTHHGFCNTEADRLVVANIDAGAIVARWYPNPDFPVDRLQMVTDFLYLYFLIDDLRFEVINSDTGLAGPIALFAQHLDLWEYPQAHRREELDLFHQAIHDLASRMAELTTPTKAARMRRSINGWFLALLREIALFNDDHAVMAEEYLPIRVVTVASRLMIDVNGFICPAEVPGDEWYSLKVQAAAEAAMSVCLYDNELYSAGKEQWLKSRATAHDRRPRNLVALIQAQTGGSTEHALQEVAEYRNRTVCLYLNLRSQLEKTASPALLAYLSVLDGVISGNLDAHATSSRYHNPDGHHPHAIAFTPLRTTDECSARAHTPIAPPIAWWWEQLDQ
For B1, the Km (purified protein) was 93.7 ± 8.4 µM, the kcat (purified protein) was 0.0467 s⁻¹ and the “stoichiometry N” value (SEC) was 2.

B2: DtcycB (enzyme, Streptomyces sp. SANK 60404, UniProt M1VDX3 1-343, looked up)
chain: MDLPPALLSFYCPIASEVSPEHEAVAQEMYAWIHAMSLTSDNRQAKMLAQAGAGFNSYFTPRARGELARALSKYNVCAWIANGMVQEIRDPGTFGAMAARWARIMEEPATCPADGIPMDFALADAFSHIRRTLSPVKWQHFSAAQSHWMHGLAWENCLHQVKGLTVHDYLSFRYVMSGCFAAAAFAYAVPERHPSAEEWAHPKVRAAADAAMMVDALDNDRYSYLKESLTEADKKTIFAALRHENPALGREEVIVRGVQLRDRILTLYLTLRGELLCDASEGLRSYLTGLDLIIAGNLVFCADMGLRYGLPEGSVRTDAEPLDRTVAPPGIGAIDHWWAQAGA
With B2 the Km (purified protein) was 42.1 ± 7.3 µM, the kcat (purified protein) was 0.0217 s⁻¹ and the “stoichiometry N” value (SEC) was 2.
